The text below walks through data of patent US20190263922A1 (TIGA TX, published 2019).

Changes are numbered by the printed parent chain. Numbers in names are those of the source. Ends that are not written are not given here.

A word on the Kd: it is the constant that tells how readily two partners part at equilibrium. Read a low Kd as tighter binding. What is called koff is the first-order rate constant of dissociation. As a reminder, the kon is the rate constant with which the complex forms. High values mean faster complex formation, low ones slower complex formation.

The target in assay [1] is T1, human CD20 (human, UniProt P11836 1-297).
T1 construct: whole, on cells; Always presented on cells; also called MS4A1; CD20 WT
T1 sequence (looked up): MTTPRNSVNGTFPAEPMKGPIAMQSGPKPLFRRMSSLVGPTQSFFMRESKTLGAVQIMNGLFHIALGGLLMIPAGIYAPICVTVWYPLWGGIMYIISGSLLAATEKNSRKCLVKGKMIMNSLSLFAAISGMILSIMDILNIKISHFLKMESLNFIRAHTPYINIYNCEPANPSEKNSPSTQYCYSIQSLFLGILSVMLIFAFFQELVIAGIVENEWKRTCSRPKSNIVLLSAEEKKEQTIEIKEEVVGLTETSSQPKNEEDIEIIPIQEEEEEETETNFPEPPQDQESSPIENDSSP
Nature of the assay: LigandTracer Green, 10 nM FITC-labeled mAb on SKBR3-CD20 cells, OneToOne fit, non-competitive dissociation. As to the method: (§1) Kinetics analysis of interactions between the mAbs and CD20 was performed by using the LigandTracer green Technology (Ridgeview Instruments AB). 10⁶ SKBR3-CD20 cells were seeded on one side of a 10 cm culture dish (Greiner) as target cell area and association of 10 nM FITC-labeled CD20 mAb was measured. For non-competitive or competitive dissociation, labeled mAb solution was replaced by RPMI culture medium or 100 nM unlabeled mAb of the same clone, respectively. Analysis was performed using an OneToOne fitting model in TraceDrawer (Ridgeview Instruments AB).
(§2) A slow Ab off-rate might favor the formation of Ab-Clq complexes, the first component of the classical complement pathway. […] To characterize interaction kinetics and affinity of mAbs, we used the LigandTracer technology to record real-time binding and dissociation of Abs to cellular receptors.

In assay [2] the target is T1, human CD20. Nature of the assay: LigandTracer Green, 10 nM FITC-labeled mAb on SKBR3-CD20 cells, OneToOne fit, competitive dissociation (100 nM unlabeled mAb of the same clone). As to the method:
as §1, §2

The target in assay [3] is T2, circular peptide YNCEPANPSEKNSPSTQYCYS (human, circular (cysteine-based loop, Pepscan technology); covalently linked to the plate).
T2 peptide: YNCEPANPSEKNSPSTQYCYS
Nature of the assay: PepScan ELISA, 1 ug/mL mAb on plate-linked peptide. As to the method: (§3) Recognition of peptides by the CD20 mAb was assessed in a PepScan-based ELISA as previously described. ⁽²⁰⁾ Briefly, 1 μg/mL mAb was added to plates with covalently linked peptides and incubated overnight at 4° C. After extensive washing, bound mAb was detected with a HRP-linked rabbit-anti-mIgG (DakoCytomation) for 1 h at 25° C. Unbound detection Ab was washed away. Plates were developed using ABTS substrate and color development quantified using a CCD camera and an image-processing system.
(ELISA stands for enzyme-linked immunosorbent assay.)

The target of assay [4] is T3, linear peptide NSPSTQYGPANPSEK (human, also: covalently linked to the plate).
T3 peptide: NSPSTQYGPANPSEK
Nature of the assay: PepScan ELISA, 1 ug/mL mAb on plate-linked peptide. As to the method: as §3

In assay [5] the target is T4, CD20 single mutant A170P (human, UniProt P11836 1-297).
T4 construct: whole, on cells
T4 sequence (looked up): T1 sequence (looked up) with A170P
Nature of the assay: FACS, HEK293F cells transfected with CD20 A170P. A general note: Flow cytometry measures light scatter and fluorescence of single cells or particles in a stream.
Description: (§4) One day post-transfection, cells were harvested, washed in FACS buffer and stained for 30 min with 5 μg/mL CD20 mAbs on ice. mAb binding was detected with a goat-anti-hIgG-APC or goat-anti-mIgG-APC Ab (Jackson). Cells were measured on a FACS Canto II (BD).

Assay [6] deals with T5, CD20 mutant T159K/N163D/N166D (human, UniProt P11836 1-297).
T5 construct: whole, on cells; also called KDD
T5 sequence (looked up): T1 sequence (looked up) with T159K, N163D, N166D
Description: FACS, HEK293F cells transfected with CD20 T159K/N163D/N166D, 5 ug/mL mAb.
Description: as §4
Therefore, we first performed a rough epitope mapping experiment with two CD20 mutants, with amino acids mutated in either the small (T159K/N163D/N166D) or larger (A170S/P172S) loop of CD20 (FIG. 4B).

In assay [7] the target is T1, human CD20. Nature of the assay: FACS on Daudi cells.
The target in assay [8] is T1, human CD20. Description: binding assay, parental against L11V version, data not shown.

B1: m1 (mIgG2c-CD20 mAb) (antibody, V domains shown)
VH: QAYLQQSGAELVRPGASVKMSCKASGYTFTSYNLHWVKQTPRQGLEWIGAIYPGNGDTSYNQKFKGKATLTVDKSSSTAYMQLSRLTSEDSAVYFCARSNSYGSTYWYFDVWGTGTTVTVSS
VL: QIVLSQSPAVLFASPGEKVTMTCRARSSVSYMDWYQQKPRSSPKPWIYATSNLASGVPARFSGSGSGTSYSLTISRVEAEDAATYYCQQWTSNPPTFGSGTKLEIK
modifications: FITC- or Alexa647-labelled in the kinetic assays; label sites not given
notes: Mouse IgG2c hybridoma mAb; FITC- or Alexa647-labeled in the kinetic assays
In assay [1], B1 returned a Kd of 1.05 nM, a koff of 3.91e-05 s⁻¹ and a kon of 37300 M⁻¹ s⁻¹. Also, in assay [2], the Kd is 2.65 nM, the koff was determined as 6.92e-05 s⁻¹ and the kon stood at 26100 M⁻¹ s⁻¹. Further, the binding result in assay [3] is on record as “binds”. The binding result in assay [4] was “binds”.

B2: m7 (mIgG2b-CD20 mAb) (antibody, V domains shown)
VH: QAYLQQSGAELVRPGASVKMSCKASGYTFASYNMHWIKQTPRQGLEWIAAIYPGNGDTSYNQKFKGKATLTVDKSSSTAYMQLSSLTSEDSAVYFCARTYYYGSSPYWSFDVWGTGTTVTVSS
VL: DIQMTQSPASLSASVGETVTVTCGASYNIYGALNWYQRKQGKSPQLLIYGATNLADGMSSRFSGSGSGRQYSLKISSLHPDDVATYYCQNVLSNPPTFGGGTKLEIK
notes: Mouse IgG2b hybridoma mAb
In the case of B2, the binding result in assay [5], in assay [6] and in assay [7] was “binds” in each case.

B3: IgG1-CD20-2 with the L11V mutation (antibody)
heavy: not shown
light: QIVLSQSPAILSASPGEKVTMTCRASSSVSYMHWYQQKPGSSPKPWIYATSNLASGVPARFSGSGSGTSYSLTISRVEAADAATYYCHQWTFNPPTFGGGTKLEIKRTVAAPSVFIFPPSDEQLKSGTASVVCLLNNFYPREAKVQWKVDNALQSGNSQESVTEQDSKDSTYSLSSTLTLSKADYEKHKVYACEVTHQGLSSPVTKSFNRGEC
notes: Chimeric human IgG1/kappa; leucine to valine at Kabat position 11 of the VH framework; also called IgG1-CD20-2 L11V
In the case of B3, the binding result in assay [8] is listed as “binds”.
